Reference: patent US20240400677A1 (ELECTRA THERAPEUTICS, published 2024)
Changes are numbered by the printed parent chain.

B1: Antibody 73 (antibody, V domains shown)
VH: QVQLVQSGAEVKKPGASVKVSCKASGGTFSSYDINWVRQAPGQGLEWMGWMNPNSGNTGYAQKFQGRVTMTRDTSTSTVYMELSSLRSEDTAVYYCARDLTLYCSSTSCLDAFDYWGQGTLVTVSS
VL: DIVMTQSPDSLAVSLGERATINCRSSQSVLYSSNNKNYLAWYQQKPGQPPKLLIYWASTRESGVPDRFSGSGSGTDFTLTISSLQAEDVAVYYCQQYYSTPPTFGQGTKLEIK
B2: Antibody 89 (antibody, V domains shown)
VH: QVQLVQSGAEVKKPGASVKVSCKASGGTFSSYAISWVRQAPGQGLEWMGIINPSSSSTGYAQKFQGRVTMTRDTSTSTVYMELSSLRSEDTAVYYCARAGYYDSSGYYYSPYYGMDVWGQGTTVTVSS
VL: EIVMTQSPATLSVSPGERATLSCRASQSISGSYLAWYQQKPGQAPRLLIYGASTRATGIPARFSGSGSGTEFTLTISSLQSEDFAVYYCQQYGSFPFTFGPGTKVDIK
B3: Antibody 65 (antibody, V domains shown)
VH: QVQLVQSGAEVKKPGASVKVSCKASGYTFTSHDINWVRQAPGQGLEWMGWMNANNGNAGYAQKFQGRVTMTRDTSTSTVYMELSSLRSEDTAVYYCAKDLSPSSSWSTYYYYYGMDVWGQGTMVTVSS
VL: DIQMTQSPSSLSASVGDRVTITCRASQSISNLLAWYQQKPGKAPKLLIYAASSLQSGVPSRFSGSGSGTDFTLTISSLQPEDFATYYCQQSYSTPYTFGQGTKLEIK
B4: Antibody 71 (antibody, V domains shown)
VH: QVQLVQSGAEVKKPGASVKVSCKASGYTFTSYYIHWVRQAPGQGLEWMGTINPSGGSTSYAQKFQGRVTMTRDTSTSTVYMELSSLRSEDTAVYYCARETSRWLRDYYYGMDVWGQGTTVTVSS
VL: DIVMTQSPLSLPVTPGEPASISCRSSQSLLHSNGYNYLDWYLQKPGQSPQLLIYDASSLESGVPDRFSGSGSGTDFTLKISRVEAEDVGVYYCMQGTHWPLTFGGGTKVEIK
B5: Antibody 85 (antibody, V domains shown)
VH: B1 VH with G27Y, S30T, D99E, L100S, T101Y, L102A, L110Y, Y115I, L121M
VL: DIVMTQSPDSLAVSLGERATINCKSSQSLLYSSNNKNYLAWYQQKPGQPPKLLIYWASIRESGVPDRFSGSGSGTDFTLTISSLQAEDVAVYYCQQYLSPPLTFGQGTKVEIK
B6: Antibody 92 (antibody, V domains shown)
VH: B1 VH
VL: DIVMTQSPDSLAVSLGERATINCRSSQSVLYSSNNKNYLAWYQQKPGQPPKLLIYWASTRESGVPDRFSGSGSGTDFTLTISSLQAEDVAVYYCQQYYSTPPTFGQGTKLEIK
B7: Antibody 86 (antibody, V domains shown)
VH: EVQLLESGGGLVQPGGSLRLSCAASGFTLGSYWMHWVRQAPGKGLEWVSLISWDGGSTYYADSVKGRFTISRDNSKNTLYLQMNSLRAEDTAVYYCAKGPWVGYSGYDLNYYYYGMDVWGQGTTVTVSS
VL: B3 VL with S28D, S30R, N31R, L32A, Q89L, S91H, Y92N, T94Y, Y96P
B8: Antibody 31 (scFv, V domains shown)
VH: QVQLVQSGAEVKKPGASVKVSCKASGGTFRSYAISWVRQAPGQGLEWMGWMNPNSGNTGYAQKFQGRVTMTRDTSTSTVYMELSSLRSEDTAVYYCARESVLKGGMDVWGQGTTVTVSS
VL: DIVMTQSPDSLAVSLGERATINCRSSQSLFHSSTNANNLAWYQQKPGQPPKLLIYWASTRESGVPDRFSGSGSGTDFTLTISSLQAEDVAVYYCQQYYITPLTFGQGTRLEIK
notes: scFv in crude PPE, V5/myc-tagged

Key:
[1] = molecular target: T1, cynomolgus monkey SIRPα on CHO cells (cynomolgus monkey, UniProt A0A2K5VYQ9 31-507); experiment: flow cytometry, CHO transfectants, anti-human IgG
T1 construct: whole, on cells; also called Cyno SIRPα CHO
T1 sequence: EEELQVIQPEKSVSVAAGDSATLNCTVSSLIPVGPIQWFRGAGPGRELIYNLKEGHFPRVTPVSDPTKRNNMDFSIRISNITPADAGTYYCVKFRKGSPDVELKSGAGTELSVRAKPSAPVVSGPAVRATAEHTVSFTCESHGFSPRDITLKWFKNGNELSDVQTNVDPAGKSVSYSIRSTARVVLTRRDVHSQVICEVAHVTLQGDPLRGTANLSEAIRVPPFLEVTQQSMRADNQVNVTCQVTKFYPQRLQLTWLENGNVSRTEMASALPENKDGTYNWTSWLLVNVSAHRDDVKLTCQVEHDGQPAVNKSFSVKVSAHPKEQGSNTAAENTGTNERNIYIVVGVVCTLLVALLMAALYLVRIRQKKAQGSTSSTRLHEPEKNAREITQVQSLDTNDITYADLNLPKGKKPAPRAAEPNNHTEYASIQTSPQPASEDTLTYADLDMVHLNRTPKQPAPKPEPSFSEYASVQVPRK
Outline: (§1)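 Antibodies are titrated onto CHO cells stably expressing the SIRP protein, then detected with fluorescent anti-human IgG. MFI is plotted against concentration. Crude PPE containing myc-tagged scFv is tested against the same lines and parental CHO-K1, with fold change <2.0 taken as non-binding.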

[2] = molecular target: T2, human SIRPβ1 on CHO cells (co-transfected with DAP12) (human, UniProt O00241 30-398); experiment: flow cytometry, CHO transfectants, anti-human IgG
T2 construct: whole, on cells; co-transfected with DAP12; also called Human SIRPβ1 CHO
Outline: as §1

[3] = molecular target: T3, human SIRPγ on stably transfected CHO cells (human, UniProt Q9P1W8 29-387); experiment: flow cytometry, CHO transfectants, anti-human IgG
T3 construct: also called Human SIRPγ CHO
Outline: as §1

[4] = molecular target: T4, Cynomolgus Monkey SIRPγ (plate-coated extracellular domain); experiment: ELISA, coated SIRP ECD (2 µg/mL), anti-human IgG, luminescence
T4 construct: also called Cyno SIRPγ
T4 extracellular domain: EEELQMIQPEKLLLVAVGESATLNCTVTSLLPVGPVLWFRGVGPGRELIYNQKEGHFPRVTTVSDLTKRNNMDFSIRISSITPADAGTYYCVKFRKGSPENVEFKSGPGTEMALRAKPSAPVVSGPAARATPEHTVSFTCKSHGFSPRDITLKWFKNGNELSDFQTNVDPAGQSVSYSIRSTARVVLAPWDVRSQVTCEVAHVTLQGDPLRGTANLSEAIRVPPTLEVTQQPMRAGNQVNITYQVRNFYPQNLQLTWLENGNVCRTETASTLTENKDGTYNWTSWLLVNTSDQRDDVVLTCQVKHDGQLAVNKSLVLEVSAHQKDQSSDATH
Experimental: (§2) Selected hybridoma supernatants of Example 1 were tested for binding to human SIRPγ, cynomolgus monkey SIRPγ, human SIRPα V1, cynomolgus monkey SIRPα, human SIRPβ1, and cynomolgus monkey SIRPβ1 by enzyme-linked immunosorbent assay (ELISA). Briefly, 2 μg/mL of the extracellular domain of SIRP protein was coated onto high protein-binding plates and blocked. Undiluted supernatants were added to coated plates. The antibodies were detected by an anti-rat antibody and a chemiluminescent substrate. […] The data depict the relative luminescence units read by a plate-reader capable of detecting chemiluminescence.
(§3) FIGS. 2A-2G show binding curves of SIRPγ antibodies and human Fc isotype controls to human SIRPγ, cynomolgus monkey SIRPγ, human SIRPα V1, human SIRPα V2, and human SIRPβ1 by ELISA. […] Isotype control 2 was an unrelated human IgG1 antibody with irrelevant CDRs with no modifications in the Fc region. DNA was transiently transfected into Expi293F cells for 5 days. Antibodies were purified by Protein A from cell supernatants and analyzed in a titration via ELISA as previously described in FIG. 1 using an anti-human IgG antibody as the detection antibody.

[5] = molecular target: T5, extracellular binding domain of human SIRPγ (plate-coated) (human, UniProt Q9P1W8 29-360); experiment: as above
T5 construct: also called hSIRPγ
Experimental: as §2, §3

[6] = molecular target: T6, human SIRPγ-His monomer protein (human, UniProt Q9P1W8 29-360); experiment: BLI Octet, antibody on AHC, global 1:2 model
T6 construct: also called hSIRPγ
Experimental: (§4) Antibodies were coated onto anti-human Fc capture (AHC) biosensors. SIRP-His monomer protein or bivalent SIRP protein with mouse Fc at four concentrations (200 nM, 100 nM, 50 nM, 25 nM) were exposed to the biosensor to measure on-rate kinetics of SIRP antibodies binding to SIRP protein. The biosensors were then exposed to wash buffer to measure off-rate kinetics. The resulting kinetic data were analyzed and fitted using a global 1:2 binding model.

[7] = molecular target: T7, cynomolgus monkey SIRPγ-His monomer protein (cynomolgus monkey, UniProt Q9P1W8 29-359 (human entry), limits assumed); experiment: BLI Octet, antibody on AHC, global 1:2 model
T7 construct: also called Cyno SIRPγ; Cyno SIRPγ-His
T7 chain: T4 extracellular domain
Experimental: as §4

[8] = molecular target: T8, bivalent human SIRPγ protein with mouse Fc (human, UniProt Q9P1W8 29-360); experiment: BLI Octet, antibody on AHC, global 1:2 model
T8 construct: also called Human SIRPγ-mFc
Experimental: as §4

[9] = molecular target: T1, cynomolgus monkey SIRPα on CHO cells; experiment: flow cytometry
[10] = molecular target: T2, human SIRPβ1 on CHO cells …; experiment: flow cytometry
[11] = molecular target: T9, cynomolgus monkey SIRPγ on CHO cells (cynomolgus monkey, UniProt Q9P1W8 29-386 (human entry)); experiment: flow cytometry, myc-scFv PPE
T9 construct: also called Cyno SIRPγ CHO
T9 chain: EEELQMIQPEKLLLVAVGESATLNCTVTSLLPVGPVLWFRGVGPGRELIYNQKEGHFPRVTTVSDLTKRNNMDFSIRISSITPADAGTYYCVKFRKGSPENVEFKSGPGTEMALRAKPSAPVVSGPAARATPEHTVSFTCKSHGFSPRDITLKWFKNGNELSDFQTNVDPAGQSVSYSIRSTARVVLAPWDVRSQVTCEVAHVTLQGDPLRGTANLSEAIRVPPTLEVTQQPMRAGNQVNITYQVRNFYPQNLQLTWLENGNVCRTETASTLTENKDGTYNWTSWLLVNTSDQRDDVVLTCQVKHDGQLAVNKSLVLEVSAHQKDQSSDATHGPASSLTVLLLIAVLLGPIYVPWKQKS
Outline: as §1

[12] = molecular target: T3, human SIRPγ on stably transfected CHO …; experiment: flow cytometry, myc-scFv PPE
Outline: as §1

[13] = molecular target: T7, cynomolgus monkey SIRPγ-His monomer …; experiment: BLI Octet, captured scFv PPE, cyno SIRP
Outline: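 Bio-layer interferometry used biotinylated anti-V5 on streptavidin sensors to capture V5-tagged scFv from crude periplasmic extract. Monomeric His-tagged SIRP protein at 500 nM was associated, then dissociated in wash buffer. Off-rate (kdis) was analyzed from the kinetic traces.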

[14] = molecular target: T6, human SIRPγ-His monomer protein; experiment: BLI Octet, V5-scFv PPE captured, SIRP-His 500 nM

T5 sequence (Q9P1W8 29-360 limits assumed): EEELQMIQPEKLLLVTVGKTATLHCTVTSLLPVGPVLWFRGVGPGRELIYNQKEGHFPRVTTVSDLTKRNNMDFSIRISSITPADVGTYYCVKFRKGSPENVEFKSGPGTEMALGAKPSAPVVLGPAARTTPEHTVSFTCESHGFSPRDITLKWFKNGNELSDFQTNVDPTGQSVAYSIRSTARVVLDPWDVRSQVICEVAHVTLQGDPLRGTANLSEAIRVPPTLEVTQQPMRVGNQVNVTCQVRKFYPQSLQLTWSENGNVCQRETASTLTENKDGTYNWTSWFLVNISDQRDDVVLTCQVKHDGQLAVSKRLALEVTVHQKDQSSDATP
T8 sequence (Q9P1W8 29-360 limits assumed): as above
T6 sequence (Q9P1W8 29-360 limits assumed): as above
T2 sequence (O00241 30-398): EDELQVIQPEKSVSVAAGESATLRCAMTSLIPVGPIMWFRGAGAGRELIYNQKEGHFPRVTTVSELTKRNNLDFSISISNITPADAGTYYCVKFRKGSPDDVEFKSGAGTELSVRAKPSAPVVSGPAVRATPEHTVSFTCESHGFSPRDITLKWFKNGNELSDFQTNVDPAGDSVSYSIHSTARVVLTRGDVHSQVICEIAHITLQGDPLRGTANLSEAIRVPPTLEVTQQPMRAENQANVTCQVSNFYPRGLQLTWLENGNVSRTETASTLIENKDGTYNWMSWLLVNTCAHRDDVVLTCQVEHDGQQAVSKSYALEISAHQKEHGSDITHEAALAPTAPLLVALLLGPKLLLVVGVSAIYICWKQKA
T3 sequence (Q9P1W8 29-387 limits assumed): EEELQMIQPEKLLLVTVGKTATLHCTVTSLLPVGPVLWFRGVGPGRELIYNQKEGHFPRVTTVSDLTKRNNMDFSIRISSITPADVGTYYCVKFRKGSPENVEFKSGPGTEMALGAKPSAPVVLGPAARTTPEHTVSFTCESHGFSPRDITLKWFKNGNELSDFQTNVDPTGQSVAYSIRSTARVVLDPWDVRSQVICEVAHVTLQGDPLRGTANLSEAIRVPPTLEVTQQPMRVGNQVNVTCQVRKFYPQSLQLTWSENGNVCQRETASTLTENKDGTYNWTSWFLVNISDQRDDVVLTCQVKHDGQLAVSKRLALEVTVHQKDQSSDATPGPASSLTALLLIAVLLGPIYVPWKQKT

Binder | binding result [1] | binding result [2] | EC50 (read off the curve) [3] [µg/mL] | EC50 (read off the curve) [4] [µg/mL] | EC50 (read off the curve) [5] [µg/mL] | Kd [6] [nM] | Kd [7] [nM] | Kd [8] [nM] | also measured
B1 | no binding (tested: about 20 µg/mL) | no binding (tested: about 20 µg/mL) | ~0.5 | ~0.05 | ~0.03 | – | – | – | –
B2 | no binding (tested: about 30 µg/mL) | no binding (tested: about 30 µg/mL) | – | ~0.2 | ~0.3 | 297 | 26.2 | 1320 | –
B3 | no binding (tested: about 20 µg/mL) | no binding (tested: about 20 µg/mL) | ~0.5 | – | – | – | – | – | –
B4 | no binding (tested: about 20 µg/mL) | – | ~0.1 | ~0.02 | ~0.02 | – | – | – | –
B5 | no binding (tested: about 30 µg/mL) | no binding (tested: about 30 µg/mL) | – | – | – | 96.9 | 96.1 | 35.6 | –
B6 | no binding (tested: about 30 µg/mL) | no binding (tested: about 30 µg/mL) | – | – | – | 12.3 | 2960 | 9.03 | –
B7 | – | – | – | – | – | 56.1 | 48.2 | 3.92 | –
B8 | – | – | – | – | – | – | – | – | binding result [9]: no binding (tested: fold change <2.0); binding result [10]: no binding (tested: fold change <2.0); MFI fold change over parental CHO [11]: 21.3 fold; MFI fold change over parental CHO [12]: 18.1 fold; binding result [13]: binds; kdis [14]: 0.001 to 0.01 s⁻¹
